In IntAct's records for PubMed 17237231:

B1: Macrophage scavenger receptor types I and II (Homo sapiens), P21757 (parent)
chain: MEQWDHFHNQQEDTDSCSESVKFDARSMTALLPPNPKNSPSLQEKLKSFKAALIALYLLVFAVLIPLIGIVAAQLLKWETKNCSVSSTNANDITQSLTGKGNDSEEEMRFQEVFMEHMSNMEKRIQHILDMEANLMDTEHFQNFSMTTDQRFNDILLQLSTLFSSVQGHGNAIDEISKSLISLNTTLLDLQLNIENLNGKIQENTFKQQEEISKLEERVYNVSAEIMAMKEEQVHLEQEIKGEVKVLNNITNDLRLKDWEHSQTLRNITLIQGPPGPPGEKGDRGPTGESGPRGFPGPIGPPGLKGDRGAIGFPGSRGLPGYAGRPGNSGPKGQKGEKGSGNTLTPFTKVRLVGGSGPHEGRVEILHSGQWGTICDDRWEVRVGQVVCRSLGYPGVQAVHKAAHFGQGTGPIWLNEVFCFGRESSIEECKIRQWGTRACSHSEDAGVTCTL
partner: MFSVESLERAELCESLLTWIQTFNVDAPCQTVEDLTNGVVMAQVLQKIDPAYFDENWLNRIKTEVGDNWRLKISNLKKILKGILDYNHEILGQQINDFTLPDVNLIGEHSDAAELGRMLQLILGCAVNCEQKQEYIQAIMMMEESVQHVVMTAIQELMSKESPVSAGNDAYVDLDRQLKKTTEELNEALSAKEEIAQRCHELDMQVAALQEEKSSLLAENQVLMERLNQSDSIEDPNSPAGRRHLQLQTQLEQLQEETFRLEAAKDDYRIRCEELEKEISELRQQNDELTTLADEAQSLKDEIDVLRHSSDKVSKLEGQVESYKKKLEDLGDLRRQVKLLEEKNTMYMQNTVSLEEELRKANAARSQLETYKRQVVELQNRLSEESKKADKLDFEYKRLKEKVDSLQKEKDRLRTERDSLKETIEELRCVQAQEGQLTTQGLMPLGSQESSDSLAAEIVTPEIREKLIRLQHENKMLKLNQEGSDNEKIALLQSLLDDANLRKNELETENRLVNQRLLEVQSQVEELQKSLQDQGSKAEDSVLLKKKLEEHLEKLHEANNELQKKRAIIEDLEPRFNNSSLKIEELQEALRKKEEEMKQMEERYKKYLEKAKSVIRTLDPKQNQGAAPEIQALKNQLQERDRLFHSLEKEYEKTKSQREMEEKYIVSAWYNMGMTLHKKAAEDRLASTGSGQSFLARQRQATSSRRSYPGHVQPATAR

Variants of: B1
Details: with hook3_human HOOK3, Q86VS8

Row | Variant | effect of a mutation on the interaction
1 | E12A;D13A;D15A | disrupting interaction
